Experimental findings from PMC4434323 are described below.

Series [1] addresses T1, mab-23 (C32C4.5) (Caenorhabditis elegans) (UniProt G5ECK3).
T1 sequence: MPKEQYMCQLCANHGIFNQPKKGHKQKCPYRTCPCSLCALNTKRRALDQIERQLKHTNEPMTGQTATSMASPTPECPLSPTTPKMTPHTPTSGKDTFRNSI

The target in series [2] is T2, dmd-6 (F13G11.1) (Caenorhabditis elegans) (UniProt O62159).
T2 sequence: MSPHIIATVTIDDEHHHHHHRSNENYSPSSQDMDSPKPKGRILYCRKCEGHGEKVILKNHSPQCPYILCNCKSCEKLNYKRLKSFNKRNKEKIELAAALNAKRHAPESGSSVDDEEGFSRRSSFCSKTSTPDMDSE

The target in series [3] is T3, Y61A9LA.9 (Y61A9LA.9) (Caenorhabditis elegans) (UniProt Q9N312).
T3 sequence: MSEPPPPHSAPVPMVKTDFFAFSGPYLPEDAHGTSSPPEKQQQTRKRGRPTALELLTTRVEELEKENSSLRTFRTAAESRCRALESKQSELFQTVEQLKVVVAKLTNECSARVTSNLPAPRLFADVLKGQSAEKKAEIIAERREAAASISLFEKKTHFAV

Series [4] addresses T4, nhr-168 (C50B6.8) (Caenorhabditis elegans) (UniProt P91983).
T4 sequence: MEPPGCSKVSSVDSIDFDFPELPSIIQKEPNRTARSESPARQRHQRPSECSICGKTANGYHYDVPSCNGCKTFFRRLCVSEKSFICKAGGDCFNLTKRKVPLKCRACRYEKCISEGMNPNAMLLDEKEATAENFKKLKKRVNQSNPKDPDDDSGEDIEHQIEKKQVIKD

Series [5] has as its system scrt-1 (C55C2.1) (Caenorhabditis elegans).
Series [6] deals with T5, K02D7.2 (K02D7.2) (Caenorhabditis elegans) (UniProt O45103).
T5 sequence: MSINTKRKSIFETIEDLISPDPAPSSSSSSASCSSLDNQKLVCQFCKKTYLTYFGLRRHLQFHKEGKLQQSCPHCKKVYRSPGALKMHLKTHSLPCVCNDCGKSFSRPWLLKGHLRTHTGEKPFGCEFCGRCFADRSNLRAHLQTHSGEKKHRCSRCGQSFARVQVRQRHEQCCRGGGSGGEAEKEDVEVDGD

For series [7], the target named is T6, Y51H4A.4 (Y51H4A.4) (Caenorhabditis elegans) (UniProt Q9NAE4).
T6 sequence: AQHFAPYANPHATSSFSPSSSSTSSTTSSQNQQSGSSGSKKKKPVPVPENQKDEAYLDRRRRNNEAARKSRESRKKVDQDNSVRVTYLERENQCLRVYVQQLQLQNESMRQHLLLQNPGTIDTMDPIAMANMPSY

The target of series [8] is T7, odr-7 (T18D3.2) (Caenorhabditis elegans) (UniProt P41933).
T7 sequence: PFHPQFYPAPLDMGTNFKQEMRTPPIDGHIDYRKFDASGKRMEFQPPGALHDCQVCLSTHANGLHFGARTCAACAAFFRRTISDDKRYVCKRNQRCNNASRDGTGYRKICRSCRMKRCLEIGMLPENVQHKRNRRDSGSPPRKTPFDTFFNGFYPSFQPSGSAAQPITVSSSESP

Series [9] concerns the target T8, tbx-33 (Y66A7A.8) (Caenorhabditis elegans) (UniProt O45291).
T8 sequence: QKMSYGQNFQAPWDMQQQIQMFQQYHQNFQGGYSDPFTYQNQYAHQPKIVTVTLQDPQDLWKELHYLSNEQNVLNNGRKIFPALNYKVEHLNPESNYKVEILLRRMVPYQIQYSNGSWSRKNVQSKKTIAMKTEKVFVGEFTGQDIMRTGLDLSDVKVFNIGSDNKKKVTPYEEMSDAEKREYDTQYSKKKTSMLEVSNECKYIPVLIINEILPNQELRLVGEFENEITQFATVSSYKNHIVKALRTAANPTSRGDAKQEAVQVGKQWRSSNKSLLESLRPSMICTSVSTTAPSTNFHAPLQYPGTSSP

Series [10] has as its target T9, T07C12.11 (T07C12.11) (Caenorhabditis elegans) (UniProt G5EGG9).
T9 sequence: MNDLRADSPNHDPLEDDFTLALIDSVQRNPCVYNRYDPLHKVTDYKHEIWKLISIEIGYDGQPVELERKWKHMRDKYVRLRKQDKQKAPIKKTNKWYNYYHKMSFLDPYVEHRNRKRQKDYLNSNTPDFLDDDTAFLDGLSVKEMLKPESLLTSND

The target in series [11] is T10, F55C5.11 (F55C5.11) (Caenorhabditis elegans) (UniProt Q1ZXU0).
T10 sequence: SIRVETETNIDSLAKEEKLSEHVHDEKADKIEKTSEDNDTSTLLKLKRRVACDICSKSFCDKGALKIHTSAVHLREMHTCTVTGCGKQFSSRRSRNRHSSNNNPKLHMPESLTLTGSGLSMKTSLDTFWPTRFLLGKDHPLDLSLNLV

In series [12] the target is T11, Y44A6D.3 (Y44A6D.3) (Caenorhabditis elegans) (UniProt Q9XXE0).
T11 sequence: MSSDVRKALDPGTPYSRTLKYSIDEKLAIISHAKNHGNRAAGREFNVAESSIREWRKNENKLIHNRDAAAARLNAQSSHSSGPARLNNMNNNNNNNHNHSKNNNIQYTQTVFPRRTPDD

In series [13] the target is T12, atf-2 (K08F8.2) (Caenorhabditis elegans) (UniProt Q21361).
T12 sequence: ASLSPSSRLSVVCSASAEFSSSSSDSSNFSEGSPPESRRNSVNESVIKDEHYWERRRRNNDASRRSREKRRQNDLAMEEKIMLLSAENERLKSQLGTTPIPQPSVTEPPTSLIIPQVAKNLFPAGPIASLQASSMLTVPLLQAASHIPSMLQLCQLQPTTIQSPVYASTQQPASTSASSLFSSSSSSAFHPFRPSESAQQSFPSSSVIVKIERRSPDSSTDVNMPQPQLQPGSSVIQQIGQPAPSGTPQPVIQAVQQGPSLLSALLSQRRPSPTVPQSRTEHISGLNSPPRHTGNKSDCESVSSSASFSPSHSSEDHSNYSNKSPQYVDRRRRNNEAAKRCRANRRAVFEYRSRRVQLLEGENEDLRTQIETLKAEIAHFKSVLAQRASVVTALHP

Series [14] has as its target T13, Y75B8A.6 (Y75B8A.6) (Caenorhabditis elegans) (UniProt A0A168H365).
T13 sequence: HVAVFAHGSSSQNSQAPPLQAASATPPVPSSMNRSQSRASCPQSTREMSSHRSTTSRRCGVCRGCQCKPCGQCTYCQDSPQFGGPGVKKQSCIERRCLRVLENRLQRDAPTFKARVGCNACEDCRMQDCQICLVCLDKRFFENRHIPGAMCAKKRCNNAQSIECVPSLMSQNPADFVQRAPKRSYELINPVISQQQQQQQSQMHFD

scrt-1 (C55C2.1) (Caenorhabditis elegans), sequence (chain, as listed by the source): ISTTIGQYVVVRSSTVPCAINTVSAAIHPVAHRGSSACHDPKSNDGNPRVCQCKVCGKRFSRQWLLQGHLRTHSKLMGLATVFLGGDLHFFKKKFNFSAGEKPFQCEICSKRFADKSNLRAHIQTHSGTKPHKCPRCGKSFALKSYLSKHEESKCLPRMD

For the sequence “AAAAATTT (double strand) [8-mer AAAAATTT]”, the binding signal (PBM E-score (-0.5 to 0.5)) in series [1] came to 0.478; in [2], 0.481. As for “AAAATATT (double strand) [8-mer AAAATATT]”, the binding signal (PBM E-score (-0.5 to 0.5)) in series [1] was found to be 0.469; in [2] it was 0.485; in series [3], 0.451. As to “AAAATGTT (double strand) [8-mer AAAATGTT]”, the binding signal (PBM E-score (-0.5 to 0.5)) in series [4] amounted to 0.458; in [2], 0.475. “AAAATTTC (double strand) [8-mer AAAATTTC]” registered a binding signal (PBM E-score (-0.5 to 0.5)) in series [1] of 0.47.

As for “AAAATTTT (double strand) [8-mer AAAATTTT]”, the binding signal (PBM E-score (-0.5 to 0.5)) in [1] worked out at 0.469; in series [2], 0.481. In series [5], “AAACCACT (double strand) [8-mer AAACCACT]” gave a binding signal (PBM E-score (-0.5 to 0.5)) of 0.453. For “AAATATTA (double strand) [8-mer AAATATTA]”, the figures for the binding signal (PBM E-score (-0.5 to 0.5)) in series [1], in [2] and in series [3] were 0.459, 0.481 and 0.456, respectively. As to “AAATGTTC (double strand) [8-mer AAATGTTC]”, the results for the binding signal (PBM E-score (-0.5 to 0.5)) in series [4] and in series [2] were 0.487 and 0.469, respectively.

On to “AAATTATT (double strand) [8-mer AAATTATT]”, for which, in series [1], the binding signal (PBM E-score (-0.5 to 0.5)) worked out at 0.454. Consider “AACCACCT (double strand) [8-mer AACCACCT]”, for which the binding signal (PBM E-score (-0.5 to 0.5)) in series [5] is 0.464. Same read-out and setting: with “AACCACTA (double strand) [8-mer AACCACTA]” the figure was 0.46. Still for that read-out and setting: to “AACCACTG (double strand) [8-mer AACCACTG]” belongs 0.475.

In the case of “AACCACTT (double strand) [8-mer AACCACTT]”, the binding signal (PBM E-score (-0.5 to 0.5)) in [5] stood at 0.476. For “AATGATCT (double strand) [8-mer AATGATCT]”, the binding signal (PBM E-score (-0.5 to 0.5)) in series [4] worked out at 0.45. Same read-out and setting: with “AATGTTCT (double strand) [8-mer AATGTTCT]” the figure was 0.482. The sequence “AATTTTTA (double strand) [8-mer AATTTTTA]” gave a binding signal (PBM E-score (-0.5 to 0.5)) in series [1] of 0.453. “ACAACCAC (double strand) [8-mer ACAACCAC]” gave a binding signal (PBM E-score (-0.5 to 0.5)) in series [5] of 0.472.

In the case of “ACACCTGT (double strand) [8-mer ACACCTGT]”, the binding signal (PBM E-score (-0.5 to 0.5)) in [6] stood at 0.468. On to “ACAGGTGC (double strand) [8-mer ACAGGTGC]”, for which the binding signal (PBM E-score (-0.5 to 0.5)) in series [6] was found to be 0.477. Same read-out and setting: with “ACAGGTGG (double strand) [8-mer ACAGGTGG]” the figure was 0.467. As for “ACGTAATA (double strand) [8-mer ACGTAATA]”, in series [7], the binding signal (PBM E-score (-0.5 to 0.5)) was determined as 0.472. As to “AGCAGGTG (double strand) [8-mer AGCAGGTG]”, the binding signal (PBM E-score (-0.5 to 0.5)) in [6] was 0.457. “AGTACAAA (double strand) [8-mer AGTACAAA]”: the binding signal (PBM E-score (-0.5 to 0.5)) in series [8] came out at 0.451; in [4], 0.456. The sequence “AGTGGTTG (double strand) [8-mer AGTGGTTG]” registered a binding signal (PBM E-score (-0.5 to 0.5)) in [5] of 0.492. In turn, “ATCTCCAG (double strand) [8-mer ATCTCCAG]” returned a binding signal (PBM E-score (-0.5 to 0.5)) in series [9] of 0.474. On the same count and under the same terms, with “ATCTTCAC (double strand) [8-mer ATCTTCAC]” the figure was 0.488. On to “ATGTTCTC (double strand) [8-mer ATGTTCTC]”, for which the binding signal (PBM E-score (-0.5 to 0.5)) in series [4] was determined as 0.465. As for “ATTACGTA (double strand) [8-mer ATTACGTA]”, the binding signal (PBM E-score (-0.5 to 0.5)) in [7] is 0.459; in [10] it was 0.485. Take “ATTGTCAC (double strand) [8-mer ATTGTCAC]”: the binding signal (PBM E-score (-0.5 to 0.5)) in [11] worked out at 0.486; in series [9], 0.47. Take “CAACCACC (double strand) [8-mer CAACCACC]”: the binding signal (PBM E-score (-0.5 to 0.5)) in series [5] amounted to 0.483. With “CACCTGTA (double strand) [8-mer CACCTGTA]”, in [6], the binding signal (PBM E-score (-0.5 to 0.5)) was 0.457. On the same count and under the same terms, with “CACCTGTC (double strand) [8-mer CACCTGTC]” the figure was 0.456. “GTACAAAA (double strand) [8-mer GTACAAAA]”: in [4], the binding signal (PBM E-score (-0.5 to 0.5)) was 0.46. As to “GTTGCGCA (double strand) [8-mer GTTGCGCA]”, the binding signal (PBM E-score (-0.5 to 0.5)) in series [12] worked out at 0.493; in series [13], 0.452. Turning to “TGGCGCAA (double strand) [8-mer TGGCGCAA]”, the binding signal (PBM E-score (-0.5 to 0.5)) in series [13] is 0.461. On to “TGGCGTAA (double strand) [8-mer TGGCGTAA]”, for which the binding signal (PBM E-score (-0.5 to 0.5)) in [13] is 0.452. In series [7], “TTACATAA (double strand) [8-mer TTACATAA]” showed a binding signal (PBM E-score (-0.5 to 0.5)) of 0.489. In the case of “TTACGCAA (double strand) [8-mer TTACGCAA]”, the binding signal (PBM E-score (-0.5 to 0.5)) came out at 0.487 in [7], 0.494 in series [10] and 0.483 in [13]. With “TTATATAA (double strand) [8-mer TTATATAA]”, the binding signal (PBM E-score (-0.5 to 0.5)) in series [7] was determined as 0.451.

Regarding “TTGCGCAA (double strand) [8-mer TTGCGCAA]”, the binding signal (PBM E-score (-0.5 to 0.5)) in series [10] came out at 0.493; in series [14], 0.462; in [13], 0.498.
